From patent publication US20070148773 come the findings set out here.

Common to all, as to assay: cell_activity
Series [1] has as its target Int-h (mutant lambda integrase) (Bacteriophage lambda) (UniProt P03700). The conditions noted are these: HeLa 48 h.
Series [2] deals with T1, Int (wild-type lambda integrase) (Bacteriophage lambda) (UniProt P03700).
T1 sequence: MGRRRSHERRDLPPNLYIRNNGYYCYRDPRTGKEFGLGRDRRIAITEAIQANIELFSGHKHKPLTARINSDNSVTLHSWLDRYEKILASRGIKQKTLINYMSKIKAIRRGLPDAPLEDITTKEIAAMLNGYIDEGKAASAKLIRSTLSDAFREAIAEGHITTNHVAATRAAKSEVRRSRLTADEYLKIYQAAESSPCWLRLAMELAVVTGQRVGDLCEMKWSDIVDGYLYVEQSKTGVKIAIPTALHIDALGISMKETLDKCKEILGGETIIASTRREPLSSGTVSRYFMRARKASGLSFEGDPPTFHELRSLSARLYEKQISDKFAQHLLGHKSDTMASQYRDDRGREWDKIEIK
The conditions noted are these: attP x attP intermolecular, HeLa 48 h; attP x attB 0.81%.

Series [3] concerns the target Int-h/218 (double mutant lambda integrase) (Bacteriophage lambda) (UniProt P03700). To be noted: HeLa 48 h.

Regarding “TCTGTTACAGGTCACTAATACCATCTAAGTAGTTGATTCATAGTGACTGCATATGTTGTGTTTTACAGTATTATGTAGTCTGTTTTTTATGCAAAATCTAATTTAATATATTGATATTTATATCATTTTACGTTTCTCGTTCAGCTTTTTTATACTAAGTTGGCATTATAAAAAAGCATTGCTTATCAATTTGTTGCAACGAACAGGTCACTATCAGTCAAAATAAAATCATTATTTGATTTC (double strand) [attP]”, the activity in series [1] (attP x attP intermolecular, attP x attB 9.90%) amounted to 8.07 % GFP+ cells; in series [2] it was 1.24 % GFP+ cells; in series [3] (attP x attP intermolecular, attP x attB 16.45%), 17.6 % GFP+ cells.

With “CTGCTTTTTTATACTAACTTG (double strand) [attB]”, the activity was 1.15 % GFP+ cells in series [1] (attB x attB intermolecular) and 4.01 % GFP+ cells in series [3] (attB x attB intermolecular).
